From the supplement of paper PMC10567573

B1: CCND1 (parent)
chain: IRRAYPDANLLNDRVLRAMLKAEE

Variants of: B1
Experiment: protein stability index of a GFP-peptide fusion (GPS, HEK-293T) (PSI 1-6); higher = more stable
Conditions: c terminus: a fixed tail appended
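Note: lentivirally expressed fusions sorted by FACS into six bins by GFP to DsRed ratio, PSI derived from sequencing read proportions per bin multiplied by bin number.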

Variant | protein stability index
IRRAYPDANLLNDRVLSAMLKAEE [R17S] | 2.72
IRRAYPDANLLNDRVLTAMLKAEE [R17T] | 3.47
IRRAYPDANLLNDRVLVAMLKAEE [R17V] | 1.72
IRRAYPDANLLNDRVLWAMLKAEE [R17W] | 1.74
IRRAYPDANLLNDRVLYAMLKAEE [R17Y] | 3.4
IRRAYPDANLLNDRVLRCMLKAEE [A18C] | 2.33
IRRAYPDANLLNDRVLRGMLKAEE [A18G] | 3.77
IRRAYPDANLLNDRVLRHMLKAEE [A18H] | 3.17
IRRAYPDANLLNDRVLRIMLKAEE [A18I] | 2.36
IRRAYPDANLLNDRVLRKMLKAEE [A18K] | 3.02
IRRAYPDANLLNDRVLRLMLKAEE [A18L] | 1.31
IRRAYPDANLLNDRVLRMMLKAEE [A18M] | 1.8
IRRAYPDANLLNDRVLRNMLKAEE [A18N] | 3.06
IRRAYPDANLLNDRVLRPMLKAEE [A18P] | 2.29
IRRAYPDANLLNDRVLRQMLKAEE [A18Q] | 3.94
IRRAYPDANLLNDRVLRRMLKAEE [A18R] | 3.23
IRRAYPDANLLNDRVLRSMLKAEE [A18S] | 3.66
IRRAYPDANLLNDRVLRTMLKAEE [A18T] | 3.58
IRRAYPDANLLNDRVLRWMLKAEE [A18W] | 2.3
IRRAYPDANLLNDRVLRAALKAEE [M19A] | 3
IRRAYPDANLLNDRVLRACLKAEE [M19C] | 3.48
IRRAYPDANLLNDRVLRADLKAEE [M19D] | 4.26
IRRAYPDANLLNDRVLRAELKAEE [M19E] | 3
IRRAYPDANLLNDRVLRAFLKAEE [M19F] | 3.26

Variant | protein stability index
IRRAYPDANLLNDRVLRAHLKAEE [M19H] | 3.54
IRRAYPDANLLNDRVLRAKLKAEE [M19K] | 3.92
IRRAYPDANLLNDRVLRANLKAEE [M19N] | 4.92
IRRAYPDANLLNDRVLRAPLKAEE [M19P] | 3.79
IRRAYPDANLLNDRVLRAQLKAEE [M19Q] | 3.52
IRRAYPDANLLNDRVLRARLKAEE [M19R] | 3.15
IRRAYPDANLLNDRVLRATLKAEE [M19T] | 3.38
IRRAYPDANLLNDRVLRAVLKAEE [M19V] | 3.61
IRRAYPDANLLNDRVLRAWLKAEE [M19W] | 3.96
IRRAYPDANLLNDRVLRAMAKAEE [L20A] | 3.3
IRRAYPDANLLNDRVLRAMDKAEE [L20D] | 4.05
IRRAYPDANLLNDRVLRAMEKAEE [L20E] | 4.09
IRRAYPDANLLNDRVLRAMFKAEE [L20F] | 2.63
IRRAYPDANLLNDRVLRAMGKAEE [L20G] | 4.01
IRRAYPDANLLNDRVLRAMHKAEE [L20H] | 2.55
IRRAYPDANLLNDRVLRAMIKAEE [L20I] | 3.55
IRRAYPDANLLNDRVLRAMKKAEE [L20K] | 3.25
IRRAYPDANLLNDRVLRAMMKAEE [L20M] | 2.87
IRRAYPDANLLNDRVLRAMNKAEE [L20N] | 3.45
IRRAYPDANLLNDRVLRAMPKAEE [L20P] | 4.68
IRRAYPDANLLNDRVLRAMQKAEE [L20Q] | 2.58
IRRAYPDANLLNDRVLRAMRKAEE [L20R] | 3.03
IRRAYPDANLLNDRVLRAMSKAEE [L20S] | 3.69
IRRAYPDANLLNDRVLRAMTKAEE [L20T] | 3.12

Variant | protein stability index
IRRAYPDANLLNDRVLRAMWKAEE [L20W] | 2.32
IRRAYPDANLLNDRVLRAMYKAEE [L20Y] | 2.9
IRRAYPDANLLNDRVLRAMLAAEE [K21A] | 2.35
IRRAYPDANLLNDRVLRAMLCAEE [K21C] | 3.33
IRRAYPDANLLNDRVLRAMLEAEE [K21E] | 2.73
IRRAYPDANLLNDRVLRAMLFAEE [K21F] | 1.47
IRRAYPDANLLNDRVLRAMLGAEE [K21G] | 2.52
IRRAYPDANLLNDRVLRAMLHAEE [K21H] | 2.56
IRRAYPDANLLNDRVLRAMLIAEE [K21I] | 2.38
IRRAYPDANLLNDRVLRAMLLAEE [K21L] | 3.01
IRRAYPDANLLNDRVLRAMLMAEE [K21M] | 1.76
IRRAYPDANLLNDRVLRAMLNAEE [K21N] | 3.04
IRRAYPDANLLNDRVLRAMLPAEE [K21P] | 3.85
IRRAYPDANLLNDRVLRAMLQAEE [K21Q] | 1.89
IRRAYPDANLLNDRVLRAMLRAEE [K21R] | 2.79
IRRAYPDANLLNDRVLRAMLSAEE [K21S] | 2.72
IRRAYPDANLLNDRVLRAMLTAEE [K21T] | 3.33
IRRAYPDANLLNDRVLRAMLVAEE [K21V] | 2.93
IRRAYPDANLLNDRVLRAMLWAEE [K21W] | 1.83
IRRAYPDANLLNDRVLRAMLKDEE [A22D] | 2.73
IRRAYPDANLLNDRVLRAMLKEEE [A22E] | 3.08
IRRAYPDANLLNDRVLRAMLKFEE [A22F] | 1.92
IRRAYPDANLLNDRVLRAMLKHEE [A22H] | 2.8
IRRAYPDANLLNDRVLRAMLKIEE [A22I] | 2.1

Variant | protein stability index
IRRAYPDANLLNDRVLRAMLKKEE [A22K] | 3.27
IRRAYPDANLLNDRVLRAMLKLEE [A22L] | 1.78
IRRAYPDANLLNDRVLRAMLKMEE [A22M] | 2.41
IRRAYPDANLLNDRVLRAMLKNEE [A22N] | 2.86
IRRAYPDANLLNDRVLRAMLKPEE [A22P] | 3.69
IRRAYPDANLLNDRVLRAMLKQEE [A22Q] | 2.64
IRRAYPDANLLNDRVLRAMLKREE [A22R] | 2.3
IRRAYPDANLLNDRVLRAMLKSEE [A22S] | 2.37
IRRAYPDANLLNDRVLRAMLKTEE [A22T] | 2.8
IRRAYPDANLLNDRVLRAMLKVEE [A22V] | 2.21
IRRAYPDANLLNDRVLRAMLKWEE [A22W] | 2.74
IRRAYPDANLLNDRVLRAMLKYEE [A22Y] | 2.43
IRRAYPDANLLNDRVLRAMLKAAE [E23A] | 1.87
IRRAYPDANLLNDRVLRAMLKACE [E23C] | 1.92
IRRAYPDANLLNDRVLRAMLKADE [E23D] | 2.42
IRRAYPDANLLNDRVLRAMLKAFE [E23F] | 1.62
IRRAYPDANLLNDRVLRAMLKAHE [E23H] | 1.62
IRRAYPDANLLNDRVLRAMLKAIE [E23I] | 1.21
IRRAYPDANLLNDRVLRAMLKAKE [E23K] | 2.75
IRRAYPDANLLNDRVLRAMLKALE [E23L] | 3.39
IRRAYPDANLLNDRVLRAMLKAME [E23M] | 2.3
IRRAYPDANLLNDRVLRAMLKANE [E23N] | 2.18
